In experiment [1] the target is Acylpeptide hydrolase from Sulfolobus solfataricus (Sulfolobus solfataricus). Nature of the experiment: enzyme inhibition kinetics (Lineweaver-Burk); APEHSs pre-incubated with the peptide 30 min at 80°C, 25 mM Tris-HCl pH 7.5, substrate acetyl-Leu-pNA; competitive inhibition.
Experiment [2] shares this target.

The values below come from paper PMC3189933, “Acylpeptide Hydrolase Inhibition as Targeted Strategy to Induce Proteasomal Down-Regulation” (PLoS ONE, 2011).

Sequence of Acylpeptide hydrolase from Sulfolobus solfataricus (Sulfolobus solfataricus) (Q7LX61 entry or part of it): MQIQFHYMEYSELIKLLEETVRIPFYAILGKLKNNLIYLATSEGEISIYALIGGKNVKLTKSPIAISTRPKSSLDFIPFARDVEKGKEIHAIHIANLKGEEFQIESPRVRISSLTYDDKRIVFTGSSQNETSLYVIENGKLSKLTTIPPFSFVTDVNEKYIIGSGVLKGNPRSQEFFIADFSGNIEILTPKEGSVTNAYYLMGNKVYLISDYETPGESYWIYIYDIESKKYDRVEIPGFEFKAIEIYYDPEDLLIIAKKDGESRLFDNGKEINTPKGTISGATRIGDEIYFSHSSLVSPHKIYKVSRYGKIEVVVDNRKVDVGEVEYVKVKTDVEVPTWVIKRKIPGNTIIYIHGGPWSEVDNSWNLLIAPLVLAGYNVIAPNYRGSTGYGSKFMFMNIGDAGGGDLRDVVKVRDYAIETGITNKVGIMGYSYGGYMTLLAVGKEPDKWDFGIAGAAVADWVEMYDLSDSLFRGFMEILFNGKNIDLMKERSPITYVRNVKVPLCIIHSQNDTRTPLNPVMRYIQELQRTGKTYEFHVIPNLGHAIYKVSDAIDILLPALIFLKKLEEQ

Regarding H-TILLEIKNINAD-NH2 [SsCEI 2], the Ki in experiment [1] is 1000 nM. In addition, the IC50 of inhibition of APEHSs activity (substrate Ac-Leu-pNA) in experiment [2] amounted to 9.8 µM.
